Target: MERS-CoV S-protein (on 293FT effector cells) (MERS-CoV, UniProt K9N5Q8)
Assay: cell-based or functional assay

B1: Peptide 1 (WT) (peptide)
peptide: SLTQINTTLLDLTYEMLSLQQVVKALNESYIDLKEL
- EC50 (µM), cell-cell fusion assay: 1.05 µM

Reference: patent US20210332086A1 (published 2021)
